Blank lines part the entries; values can stand above or below the sequence they belong to.
How the values were obtained:
HLA-A*01:01 = test: IEDB peptide-MHC binding, purified MHC/competitive/fluorescence; ≥ and ≤ were set here for values at or beyond the usual limits of such assays; details: source organism: Monodelphis domestica
HLA-A*02:01 [1] = test: as above; details: source organism: Monodelphis domestica
HLA-A*03:01 [2] = test: as above; details: source organism: Monodelphis domestica
HLA-A*11:01 = test: as above; details: source organism: Monodelphis domestica
HLA-A*24:02 = test: as above; details: source organism: Monodelphis domestica
HLA-A*25:01 [3] = test: as above; details: source organism: Monodelphis domestica
HLA-A*29:02 [4] = test: as above; details: source organism: Monodelphis domestica
HLA-A*31:01 = test: as above; details: source organism: Monodelphis domestica
HLA-A*68:02 [5] = test: as above; details: source organism: Monodelphis domestica
HLA-B*07:02 = test: as above; details: source organism: Monodelphis domestica
HLA-B*08:01 = test: as above; details: source organism: Monodelphis domestica
HLA-B*14:02 = test: as above; details: source organism: Monodelphis domestica
HLA-B*18:01 [6] = test: as above; details: source organism: Monodelphis domestica
HLA-B*35:01 = test: as above; details: source organism: Monodelphis domestica
HLA-B*37:01 = test: as above; details: source organism: Monodelphis domestica
HLA-B*40:02 = test: as above; details: source organism: Monodelphis domestica
HLA-B*44:03 = test: as above; details: source organism: Monodelphis domestica
HLA-B*51:01 [7] = test: as above; details: source organism: Monodelphis domestica
HLA-B*53:01 = test: as above; details: source organism: Monodelphis domestica
HLA-B*58:01 [8] = test: as above; details: source organism: Monodelphis domestica
HLA-B*58:01 [9] = test: IEDB peptide-MHC binding, cellular MHC/competitive/fluorescence; ≥ and ≤ were set here for values at or beyond the usual limits of such assays; details: source organism: Human herpesvirus 4 strain B95-8
HLA-A*03:01 [10] = test: IEDB peptide-MHC binding, purified MHC/direct/fluorescence; filed as Kd, often an IC50 or EC50 that approximates it; ≥ and ≤ were set here for values at or beyond the usual limits of such assays; details: source organism: Cryptosporidium parvum Iowa II
HLA-A*25:01 [11] = test: as above; details: source organism: Cryptosporidium parvum Iowa II
HLA-A*26:01 [12] = test: as above; details: source organism: Cryptosporidium parvum Iowa II
HLA-A*80:01 [13] = test: as above; details: source organism: Cryptosporidium parvum Iowa II
HLA-B*15:17 [14] = test: as above; details: source organism: Cryptosporidium parvum Iowa II
HLA-B*18:01 [15] = test: as above; details: source organism: Cryptosporidium parvum Iowa II
HLA-B*46:01 [16] = test: as above; details: source organism: Cryptosporidium parvum Iowa II
HLA-A*02:01 [17] = test: as above; details: source organism: Homo sapiens
HLA-A*25:01 [18] = test: IEDB peptide-MHC binding, purified MHC/competitive/fluorescence; filed as Kd, often an IC50 or EC50 that approximates it; ≥ and ≤ were set here for values at or beyond the usual limits of such assays; details: source organism: Homo sapiens
HLA-A*26:01 [19] = test: as above
HLA-A*80:01 [20] = test: as above; details: source organism: Homo sapiens
HLA-B*15:01 = test: as above
HLA-B*15:17 [21] = test: as above
HLA-B*18:01 [22] = test: as above
HLA-B*27:03 = test: as above
HLA-B*46:01 [23] = test: as above
HLA-B*51:01 [24] = test: as above
HLA-B*57:01 = test: as above
HLA-A*02:01 [25] = test: as above; details: source organism: Campylobacter jejuni subsp. jejuni NCTC 11168 = ATCC 700819
HLA-A*02:03 = test: as above; details: source organism: Campylobacter jejuni subsp. jejuni NCTC 11168 = ATCC 700819
HLA-A*02:11 = test: as above; details: source organism: Campylobacter jejuni subsp. jejuni NCTC 11168 = ATCC 700819
HLA-A*02:12 = test: as above; details: source organism: Campylobacter jejuni subsp. jejuni NCTC 11168 = ATCC 700819
HLA-A*02:16 = test: as above; details: source organism: Campylobacter jejuni subsp. jejuni NCTC 11168 = ATCC 700819
HLA-A*02:19 = test: as above; details: source organism: Campylobacter jejuni subsp. jejuni NCTC 11168 = ATCC 700819
HLA-A*03:01 [26] = test: as above; details: source organism: Campylobacter jejuni subsp. jejuni NCTC 11168 = ATCC 700819
HLA-A*23:01 = test: as above; details: source organism: Campylobacter jejuni subsp. jejuni NCTC 11168 = ATCC 700819
HLA-A*24:03 = test: as above; details: source organism: Campylobacter jejuni subsp. jejuni NCTC 11168 = ATCC 700819
HLA-A*29:02 [27] = test: as above; details: source organism: Campylobacter jejuni subsp. jejuni NCTC 11168 = ATCC 700819
HLA-A*68:02 [28] = test: as above; details: source organism: Campylobacter jejuni subsp. jejuni NCTC 11168 = ATCC 700819
HLA-A*69:01 = test: as above; details: source organism: Campylobacter jejuni subsp. jejuni NCTC 11168 = ATCC 700819
HLA-B*39:01 = test: as above; details: source organism: Campylobacter jejuni subsp. jejuni NCTC 11168 = ATCC 700819
[29] = source organism: Campylobacter jejuni subsp. jejuni NCTC 11168 = ATCC 700819

IC50 (HLA-A*01:01): ≥ 20 µM | IC50 (HLA-A*02:01 [1]): ≥ 20 µM | IC50 (HLA-A*03:01 [2]): ≥ 20 µM | IC50 (HLA-A*11:01): ≥ 20 µM | IC50 (HLA-A*24:02): ≥ 20 µM | IC50 (HLA-A*25:01 [3]): ≥ 20 µM | IC50 (HLA-A*29:02 [4]): ≥ 20 µM | IC50 (HLA-A*31:01): ≥ 20 µM | IC50 (HLA-A*68:02 [5]): ≥ 20 µM | IC50 (HLA-B*07:02): ≥ 20 µM | IC50 (HLA-B*08:01): 2.4 µM | IC50 (HLA-B*14:02): ≥ 20 µM | IC50 (HLA-B*18:01 [6]): 4.72 µM | IC50 (HLA-B*35:01): ≥ 20 µM | IC50 (HLA-B*37:01): ≥ 20 µM | IC50 (HLA-B*40:02): 0.126 µM | IC50 (HLA-B*44:03): ≥ 20 µM | IC50 (HLA-B*51:01 [7]): ≥ 20 µM | IC50 (HLA-B*53:01): ≥ 20 µM | IC50 (HLA-B*58:01 [8]): ≥ 20 µM
Sequence: LEYFQFVKKLL

Sequence: NAAEPEQPW
IC50 (HLA-B*58:01 [9]): 5 µM

Sequence: RAIMTTWTV
Kd (HLA-A*03:01 [10]): ≥ 20 µM | Kd (HLA-A*25:01 [11]): ≥ 20 µM | Kd (HLA-A*26:01 [12]): ≥ 20 µM | Kd (HLA-A*80:01 [13]): ≥ 20 µM | Kd (HLA-B*15:17 [14]): 0.06 µM | Kd (HLA-B*18:01 [15]): ≥ 20 µM | Kd (HLA-B*46:01 [16]): ≥ 20 µM

Sequence: HLLCQAFSV
Kd (HLA-A*02:01 [17]): 0.0002 µM | Kd (HLA-A*25:01 [18]): ≥ 20 µM | Kd (HLA-A*26:01 [19]; source organism: Homo sapiens): ≥ 20 µM | Kd (HLA-A*80:01 [20]): ≥ 20 µM | Kd (HLA-B*15:01; source organism: Homo sapiens): ≥ 20 µM | Kd (HLA-B*15:17 [21]; source organism: Homo sapiens): ≥ 20 µM | Kd (HLA-B*18:01 [22]; source organism: Homo sapiens): ≥ 20 µM | Kd (HLA-B*27:03; source organism: Homo sapiens): ≥ 20 µM | Kd (HLA-B*46:01 [23]; source organism: Homo sapiens): ≥ 20 µM | Kd (HLA-B*51:01 [24]; source organism: Homo sapiens): ≥ 20 µM | Kd (HLA-B*57:01; source organism: Homo sapiens): ≥ 20 µM

Sequence: LELAEITAE
Kd (HLA-A*02:01 [25]): ≥ 20 µM | Kd (HLA-A*02:03): ≥ 20 µM | Kd (HLA-A*02:11): ≥ 20 µM | Kd (HLA-A*02:12): ≥ 20 µM | Kd (HLA-A*02:16): ≥ 20 µM | Kd (HLA-A*02:19): ≥ 20 µM | Kd (HLA-A*03:01 [26]): ≥ 20 µM | Kd (HLA-A*23:01): ≥ 20 µM | Kd (HLA-A*24:03): ≥ 20 µM | Kd (HLA-A*26:01 [19]; [29]): ≥ 20 µM | Kd (HLA-A*29:02 [27]): ≥ 20 µM | Kd (HLA-A*68:02 [28]): ≥ 20 µM | Kd (HLA-A*69:01): ≥ 20 µM | Kd (HLA-B*15:01; [29]): ≥ 20 µM | Kd (HLA-B*15:17 [21]; [29]): ≥ 20 µM | Kd (HLA-B*18:01 [22]; [29]): 0.511 µM | Kd (HLA-B*27:03; [29]): ≥ 20 µM | Kd (HLA-B*39:01): ≥ 20 µM | Kd (HLA-B*46:01 [23]; [29]): ≥ 20 µM | Kd (HLA-B*51:01 [24]; [29]): ≥ 20 µM | Kd (HLA-B*57:01; [29]): ≥ 20 µM
